Measurements: the nanobody polyreactivity screen of Harvey et al. (2022)

Test: yeast display, Sf9 membrane polyspecificity reagent, FACS + sequencing; frameworks hold sequencing errors
Summary of the method: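 Polyreactivity labels are assigned by the sorting gate from which each nanobody was recovered. The gates were low and high (top ~1%), set on anti-HA fluorescence for expression and streptavidin fluorescence for reagent binding. Before sorting, galactose-induced (36–48 hours) yeast display cells were stained for 1 hour at 4 °C with 10% biotinylated, detergent-solubilized Sf9 membrane reagent.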
With “QVQLVESGGGLVQAGGSLRLSCAASGRTFLSYAMGWYRQAPGKERELVAAITSSGGTTNYADSVKGRFTISRDNAKNTVYLQMNSLKPEDTAVYYCAAYSWYFGSRYDYWGQGTQVTVSS” the “polyreactivity (PSR sort gate)” value was “low polyreactivity”.
In the case of “QVQLVESGGGLVQAGGSLRLSCAASGFIFNRYAMGWYRQAPGKERELVAAITASGGSTYYADSVKGRFTISRDNAKNTVYLQMNSLKQEDTAVYYCAARAWLYSRRYGYWGQGTQVTVSS”, the “polyreactivity (PSR sort gate)” value is reported as “high polyreactivity”.
For “QVQLVESGGGLVQAGGSLRLSCAASGGTFATYAMGWYRQAPGKEKELVAAISWSGGSTYYADSVKGRFTISRDNAKNTVYLQMNSLKPEDTAVYYCNALPRLGGGAEKLDYWGQGTQVTVSS”, the “polyreactivity (PSR sort gate)” value was “high polyreactivity”.
For “QVQLVESGGGLVQAGGSLRLSCAASGRTFYSNAMGWYRPAPGKERELGATISSGGSTNYADSVKGRFTISRDTAKNTVYLQINSVKPADTAVYYCDTRPDRINDYWGQGTQVTVSS”, the “polyreactivity (PSR sort gate)” value was “low polyreactivity”.
For “QVQLVESGGGLVQAGGSLRLSCPASGLIIGVYAMGWYRQEPGKERELVAAITDGGSTYYADSVKGRFTISRDNAKNTVYLQMNSLKPEDTAVYYCNAEFRSSDYDYWGQGTQVTVSS”, the “polyreactivity (PSR sort gate)” value was “low polyreactivity”.
For “QVQLVESGGGLVQAGGSLRLSCAASGFIFYSNAMGWYRQAPGKERELVAAISWDAGSTYYADSVKGRFTISRDNPKNTVYLQMNSLKPEDTAVYYCATDRIVGRYIYNYWGQGTQVTVSS”, the “polyreactivity (PSR sort gate)” value was “high polyreactivity”.
For “QVQLVESGGGLVQAGGSLRLSCAASGRIFYYYVMGWYRQAPGKERELVAVIDWSGGSTYYADSVKGRFTISRDNAKNTVYLQMNSLKPEDTAVYYCAKVWLNFSLAYEDYDYWGQGTQVTVSS”, the “polyreactivity (PSR sort gate)” value was “low polyreactivity”.
In the case of “QVQLVESGGGLVQAGGSLLLSCAASGGTFRNNAMGWYRQAPVKERELVAAISSSGTSTYYADSVKGRFTISRDNVKNTVYLQMNSLKPEDTAVYYCNADALGSPWWDHMDYWGQGTQVTVSS”, the “polyreactivity (PSR sort gate)” value is reported as “low polyreactivity”.
In the case of “QVQLVESGGGLVQAGGSLRLSCAAYGSTFNGNAMGWYRQAPGKERELVARISFDGTSTYYADSVKGRFTISRDNAKNTVYLQMNSLKPEDTAVYYCNVMFPRDHGFPGYGYWGQGTQVTVSS”, the “polyreactivity (PSR sort gate)” value is reported as “low polyreactivity”.
With “QVQLVESGGCLVQEGGSLRLSCAASGFTFRWYTMGWYRQAPGKERELVASIRYGGGSTYYADSVKGRFTISRDNAKNTVYLQMNSLKPEDTAVYYCAAYVRTYRGYYWKAFDYWGQGTQVTVSS” the “polyreactivity (PSR sort gate)” value was “high polyreactivity”.
For “QVQLVESGGGLVQAGGSLRLSCAASGFILTSYAMGWYRPEPGKERELVAAISSRGGRTYYADSVKGRFTISRDNAKNTVYLQMNSLKPEDTAVYYCNAVVYVVGDFDYWGQGTQVTVSS”, the “polyreactivity (PSR sort gate)” value was “high polyreactivity”.
For “QVQLVESGGGLVQAGGSLRLSCAASGRIFYDYTMGWYRQAPVKERELVATITSGGNTNYADSVKGRFTISRDNAKNTVYLQMNSLKPEDTEVYYCNADFGYWWDGSRYDYWGQGTQVTVSA”, the “polyreactivity (PSR sort gate)” value was “low polyreactivity”.
With “QVQLVESGGGLVQAGGSLRLSCAASGRIFDIYAMGWSRQAPGKERELVAAIDESGGSTYYADSVKGRFTISRDNAKNTVYLQMNSLKPEDTAVDYCATDDTWTIAYGWYWFTYEYWGQGTQVTVSS” the “polyreactivity (PSR sort gate)” value was “low polyreactivity”.
For “QVQLVESGGGLVQAGGSLRLSCAASGSILVYNAMGWYRQAPGKERELVDAISNTGRTYYADSVKGRFTISRDNAKNTVYLQMNSLKPEDTAVYYCADRFYRVLHRFGYWGQGTQVTVSS”, the “polyreactivity (PSR sort gate)” value was “high polyreactivity”.
In the case of “QVQLVESGGGLVQAGGSLRLSCAASGSIFAYYAMGWYRQAPGKERELVAAIDSGGGTSYADSVKGRFTISRDNAKNTVYLQMNSLNPEDTAVYYCNAAGYVVYYRIIAFGYWGQGTLVTVSS”, the “polyreactivity (PSR sort gate)” value is reported as “low polyreactivity”.
In the case of “QVQLVESGGGLVQAGGSLRLSCAASGSTFGYAMGWYRQAPGKEREMVAAITSTGGSTYYADSVKGRFTISRDNAKNTVYVQMHSLKPEDTAVYYCAAQVGRGYEVYPVYKYGYWGQGTQVTVSS”, the “polyreactivity (PSR sort gate)” value is reported as “high polyreactivity”.
For “QVQLVESGGGLVQAGGSLRLSCAASGIIFIGYAMGWYSQAPGKERELVAAISTRGSTTNYADSVKGRFTISRDNAKNTVYLQMNSLKPEDTAVYYCAARKYPSYRYPTGDYWGQGTQVTVSS”, the “polyreactivity (PSR sort gate)” value was “high polyreactivity”.
With “QVQLVESGGGLVQAGGSLRLSCAASGSTFYVYAMGSYRQAPGKERELVAAITRGGSTYYADSVKARFTISRDNAKNTVYLQMNSLKPEDTAVYYCAKYLTGAADLVPEYDYWGQGTQVTVSS” the “polyreactivity (PSR sort gate)” value was “low polyreactivity”.
In the case of “QVQLVESGGGLVQAGGSLRLSCAASGFILRYNAMGWYRQAPGKERELVAAISYTGDRTYYADSVKGRFTISRDNAKNTVYLQMNSLKPEDTAVYYCNAVTYGSYYYWGQGTQVTVSS”, the “polyreactivity (PSR sort gate)” value is reported as “high polyreactivity”.
For “QVQLVESGGGLVQAGGSLRLSCAASGRIFNPYAMGWYRQAPGKEREFVAAIRWSSGSTSYADSVKGRFTISRDNAKNTVYLQMNSLKPEDTAVYYCNTRSHSYYTLWGASRPRFDYWGQGTQVTVSS”, the “polyreactivity (PSR sort gate)” value was “high polyreactivity”.
With “QVQLVESGGGLVQGGGSLRLSCAASGRTFQTNVMGWYRPAPGKERELVAAITLSGGSTNYADSVKGRFTISRDNAKNTVYVQMNSLKPEDTAVYYCNAERRYRHQWTPHYEYDYWGQGTQVSVSS” the “polyreactivity (PSR sort gate)” value was “low polyreactivity”.
For “QVQLVESGGGLVQAGGSLRLSCAASGRIFLLNAMGWSRQAPGKERELVAAIDIIGGSTYYADSVKGRFTISRDNAKNTVYLQMNSLKPEDTAVFYCAAEADFWRFVEYDYWGQGTQVTVSS”, the “polyreactivity (PSR sort gate)” value was “low polyreactivity”.
For “QVQHVESGGGLVQAGGSLRLSCAASGSTFGYNPMGSYRQAPGKERELTNYADSVKGRFTISRDNAKNTVYLQMNSLKPEDTAVYYCNAQIDFGDPEKRAWGYDYWGQGTQVTVSS”, the “polyreactivity (PSR sort gate)” value was “low polyreactivity”.
In the case of “QVQLVESGVGLVQAGGSLRLSCAASGFIFDHNAMGWYRQAPGKERELVAAITRSGGSTYYADSVKGRFTISRDNAKNTVYLQMNSLKPEDTAVYYCAADLSYRGATRGDYYWGQGTQVTVSS”, the “polyreactivity (PSR sort gate)” value is reported as “low polyreactivity”.
In the case of “QVQLVESGGGIVQAGGSLRLSCAASGSTFNWNAMGWYRQAPGKEREFVAAISKSGGTTYYADSVKGRFTISRDNAKNTVYLQMNSLKPEDTAVYYCAAVRRYHSYPDGGYWGQGTQVTVSS”, the “polyreactivity (PSR sort gate)” value is reported as “high polyreactivity”.
For “QVQLVESGGGLVQAGGILRLSCAATGSTFVNNVMGWYRQGPRKESDLFAAISRRATSTRYADSVKGRFTISRDHAKNTVYLQMNSLKPEDTEVYYCAATLYVGVTGYGYWGQGTQVTVSS”, the “polyreactivity (PSR sort gate)” value was “high polyreactivity”.
With “QVQLVESGGGLVQAGGSLRLSCAASGFTFRYYAMGWYRQAPGKERELVAAIRRGGTTNYADSVKGRFTISRDNAKNTVYLQMKSLKPEDTAVYYCNAGRGYSVWASIYNSRPFDYWGQGTQVTVSS” the “polyreactivity (PSR sort gate)” value was “high polyreactivity”.
For “QVQLVESGGGLVQAGGSLRLSCAASGSTFVCYGMGWYRQAPGKEREFVAAISTSGGRTYYADSVKGRFSISRDNAKNTVYLQMNSLKQEDTAVYYCATRPYFTYRWYDYWGQGTKVTVSS”, the “polyreactivity (PSR sort gate)” value was “high polyreactivity”.
With “QVQLVESGGGLVQAGGSLRLSCAASGSSFRGYAMGWSRQAPGKERELVAAISRSGGSTYYADSVKGRFTISRDNAKNTVYLQMKSLKPEDTAVYYCNARCSKRSSRGYDYWGQGTQVTVSS” the “polyreactivity (PSR sort gate)” value was “high polyreactivity”.
For “QVQLVESGGGLVQAGGSLRLSCAASGLIFAYNAMGWYRQAPGKERELVAAITGGGDGTYYADSVKGRFTISRDNAKNTVYLQMNSLKPEDTAVYYCAADFGNSPYIKVYYYWGQGTQVTVSS”, the “polyreactivity (PSR sort gate)” value was “low polyreactivity”.
In the case of “QVQLVESGGGLVQAGGSIGLNCAASVSSYEPYVMGWYRQATGKEMELVGAIYESGDTTYYADSVKGRFTISRDNAKNTVYLQMNSLKPEDSAVYYCNAEDPSIYGWWRVGEYDYWGQGTQVTVSS”, the “polyreactivity (PSR sort gate)” value is reported as “low polyreactivity”.
In the case of “QVHLVESGGGLVQAGGSLRVSCAASGSIFLDNAMGWYRQAPGKERELVADISYSGGSTYYADSVKGRFTISRDNAKNTVYLQMISLKPEDTAVYYCAAGVQLTVPPLRSSVTEYDYWGQGSQVTVSS”, the “polyreactivity (PSR sort gate)” value is reported as “low polyreactivity”.
For “QVQLVESGGGLVQAGGSLRLSCAASGRIFRYYTMGWYRQAPGKERELVAAIRLAGSTTYYADSVKGRFTISRDNAKNTVYLQMNSLNPEDSAVYSCTTRYPVPSGYDYWGHGTQVTVSS”, the “polyreactivity (PSR sort gate)” value was “high polyreactivity”.
For “QVQLVESGGGLVQAGGSLRLSCAASGFTFGENDMGWYRQAPGKERELVATISYSGDSTYYAVSVKGLFTISRVNGKNTVYLHMNSLKPEDTAVYYCAAPLPHRVYDEGYWRQGTQVTVSS”, the “polyreactivity (PSR sort gate)” value was “low polyreactivity”.
In the case of “QVQLVESGGGLVQAGGSLRLSCAASGLIFKDYAMGWYRQAPGKERELVAAISSSGGSTYYADSVKGRFTISRDNAKNTVYLQMNSLKPEDTAVYYCAARSFRYYSDYGYWGQGTQVTVSS”, the “polyreactivity (PSR sort gate)” value is reported as “high polyreactivity”.
For “QVQLVESGGGLVQAGGSLRLSCAASGYIFHYNAMGWYRQAPGKEREFVAAISQGGGSTYYADSVKGRFTISRDNAKNTVYLQMNSLKPEDTAVYYCAADYRSGYREMDYWGQGTQVTVSS”, the “polyreactivity (PSR sort gate)” value was “low polyreactivity”.
For “QVQLVESGGGLVQAGGSLRLSCAASGFTFSVYAMGWYRQAPGKERELVAVITKRGGSTYYADSVKGRFTISRDNAKNTVYLQMNSLKPEDTAVYYCNAYLQGKIFPYGYWGQGTQVTVSS”, the “polyreactivity (PSR sort gate)” value was “high polyreactivity”.
In the case of “QVQLVESGGGLVQAGGSLRLSCAASGSTFTGYAMGWYRQAPGKEREFVANITKRGGRTYYADSVKGRFTISRDNAKNTVYLQMNSLKPEDTAGYYCARDQGKLVVPYEYWGQATQVTVSS”, the “polyreactivity (PSR sort gate)” value is reported as “high polyreactivity”.
For “QVQLVESGGGLVQAGGSLRLICAASGNIFVPNAMGWYREAPGKEWELVAAIRRGGSTNYADSVKGRFTISRDNAKTTVYFQMNSLKPEDTAVYYCAKSRVSFTDLEGYYWGQGTQVTVSS”, the “polyreactivity (PSR sort gate)” value was “low polyreactivity”.
With “QVQLVESGGGLVQAGGSLRLSCAASGLTFVYYTRGWYRQAPGKERELVATITFTGGNTYYADSVKGRFTISRDNAKNTVYLQMNCLKPEDTAVYYCAKDSGPYKAEYDYGGQGTQVTVSS” the “polyreactivity (PSR sort gate)” value was “low polyreactivity”.
In the case of “QVQLVESGGGLVQAGGSLRLICAASGNTFYGYAMGWYRQAPGKERELVASITLSGDSTYYADSVKGRFTISRDNAKNTVYLQMNSLKPEDTAVYYCNRARHQYSRWHGGYYYWGQGTQVTVSS”, the “polyreactivity (PSR sort gate)” value is reported as “low polyreactivity”.
For “QVQVLESGGGLVQAGGSLRLSCAASGRTFYWNAMGWYRQAPGKERELDAVISQSGGSTYYADSVKGRFTISRDNAKNTVYLQMNSLQPEDTAVYYCNKATRHHFYYWGQGTQVTVSS”, the “polyreactivity (PSR sort gate)” value was “high polyreactivity”.
For “QVQLVESGGGLVQAGGSLRLSCAASGSTISYYAMGWYIQAPGKERELVAAISQTGGTTYYADSVKGRFTISRDNAKNTVYLQMNSLKPEDTAVYYCNAARPGGHYWGQGTQVTVSS”, the “polyreactivity (PSR sort gate)” value was “low polyreactivity”.
